According to patent US20240141042A1 (INNATE PHARMA, published 2024):
Substitutions are numbered along the chain they refer to. Where two headings read alike, the source gives them in different places.

Tests used:
NKp46 mutant Supp6 = target: T1, NKp46 mutant Supp6 (human, UniProt O76036 22-304); assay: flow cytometry on HEK293T cells transfected with NKp46 mutant Supp6 (E104A, L105A; printed 'Mutant S6'), antibody titrated 0.001-1 ug/ml
T1 construct: Expressed in transfected HEK293T cells; also called supplementary mutant Supp6
T1 chain: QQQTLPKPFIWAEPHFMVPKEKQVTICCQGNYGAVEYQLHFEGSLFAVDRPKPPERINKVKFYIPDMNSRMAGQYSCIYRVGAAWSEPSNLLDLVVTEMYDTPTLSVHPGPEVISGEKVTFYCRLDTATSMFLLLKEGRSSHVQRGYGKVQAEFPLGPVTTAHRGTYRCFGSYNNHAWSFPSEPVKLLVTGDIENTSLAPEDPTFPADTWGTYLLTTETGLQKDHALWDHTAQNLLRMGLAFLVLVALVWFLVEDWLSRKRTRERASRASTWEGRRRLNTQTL

NKp46 mutant 2 = target: T2, NKp46 mutant 2 (human, UniProt O76036 22-304); assay: flow cytometry on HEK293T cells transfected with NKp46 mutant 2 (K41S, E42A, E119A), antibody titrated 0.001-1 ug/ml
T2 construct: Expressed in transfected HEK293T cells
T2 chain: T1 chain with K20S, E21A, A83E, A84L, E98A
Method: All the anti-NKp46 antibodies were tested for their binding to each mutant by flow cytometry. A first experiment was performed to determine antibodies that lose their binding to one or several mutants at one concentration (10 μg/ml).

NKp46 mutant Supp7 = target: T3, NKp46 mutant Supp7 (human, UniProt O76036 22-304); assay: flow cytometry on HEK293T cells transfected with NKp46 mutant Supp7 (Y121A, Y194A; printed 'Mutant S7'), antibody titrated 0.001-1 ug/ml
T3 construct: Expressed in transfected HEK293T cells; also called supplementary mutant Supp7
T3 chain: T1 chain with A83E, A84L, Y100A, Y173A

NKp46 mutant 19 = target: T4, NKp46 mutant 19 (human, UniProt O76036 22-304); assay: flow cytometry on HEK293T cells transfected with NKp46 mutant 19 (I135A, S136A), antibody titrated 0.001-1 ug/ml
T4 construct: Expressed in transfected HEK293T cells
T4 chain: T1 chain with A83E, A84L, I114A, S115A

NKp46 mutant 6 = target: T5, NKp46 mutant 6 (human, UniProt O76036 22-304); assay: flow cytometry on HEK293T cells transfected with NKp46 mutant 6 (R101A, V102A), antibody titrated 0.001-1 ug/ml
T5 construct: Expressed in transfected HEK293T cells
T5 chain: T1 chain with R80A, V81A, A83E, A84L

[1] = target: T6, human NKp46 expressed at the cell surface (human, UniProt O76036 22-304); assay: flow cytometry on HEK293T cells transfected with wild-type NKp46, antibody titrated 0.001-1 ug/ml
T6 construct: Wild-type NKp46 on cells (transfected cell lines or NK cells); also called cell line expressing the human NKp46 construct; NKp46 cell line

NKp46 mutant Supp8 = target: T7, NKp46 mutant Supp8 (human, UniProt O76036 22-304); assay: flow cytometry on HEK293T cells transfected with NKp46 mutant Supp8 (P132A, E133A; printed 'Mutant S8'), antibody titrated 0.001-1 ug/ml
T7 construct: Expressed in transfected HEK293T cells; also called supplementary mutant Supp8
T7 chain: T1 chain with A83E, A84L, P111A, E112A

[2] = target: T6, human NKp46 expressed at the cell …; assay: flow cytometry on HEK293T cells transfected with wild-type NKp46, antibody titrated 0.001-1 ug/ml; remark: listed apart in the source
[3] = target: T8, Human NKp46 recombinant proteins (human, UniProt O76036 22-258); assay: SPR, bispecific captured on Protein-A chip
T8 construct: also called recombinant human NKp46 proteins
Method: SPR measurements were performed on a Biacore T100 apparatus (Biacore GE Healthcare) at 25° C. In all Biacore experiments HBS-EP+(Biacore GE Healthcare) and NaOH 10 mM served as running buffer and regeneration buffer respectively. Sensorgrams were analyzed with Biacore T100 Evaluation software. Protein-A was purchase from (GE Healthcare). Human NKp46 recombinant proteins were cloned, produced and purified at Innate Pharma.
Protein-A proteins were immobilized covalently to carboxyl groups in the dextran layer on a Sensor Chip CM5. The chip surface was activated with EDC/NHS (N-ethyl-N′-(3-dimethylaminopropyl) carbodiimidehydrochloride and N-hydroxysuccinimide (Biacore GE Healthcare)). Protein-A was diluted to 10 μg/ml in coupling buffer (10 mM acetate, pH 5.6) and injected until the appropriate immobilization level was reached (i.e. 2000 RU). Deactivation of the remaining activated groups was performed using 100 mM ethanolamine pH 8 (Biacore GE Healthcare).

Measured: binding result

B1: NKp46-6 (antibody, V domains shown)
VH: QVQLQQPGSVLVRPGASVKLSCKASGYTFTSSWMHWAKQRPGQGLEWIGHIHPNSGISNYNEKFKGKATLTVDTSSSTAYVDLSSLTSEDSAVYYCARGGRFDDWGAGTTVTVSS
VL: DIVMTQSPATLSVTPGDRVSLSCRASQSISDYLHWYQQKSHESPRLLIKYASQSISGIPSRFSGSGSGSDFTLSINSVEPEDVGVYYCQNGHSFLMYTFGGGTKLEIK
notes: not in the list MOLECULES as an antibody; also called antibody NKp46-6; monoclonal antibody NKp46-6
binds: NKp46 mutant Supp6 | NKp46 mutant 2 | NKp46 mutant Supp7 | NKp46 mutant 19 | NKp46 mutant 6 | [1] | NKp46 mutant Supp8

B2: NKp46-4 (antibody, V domains shown)
VH: QVQLQQSAVELARPGASVKMSCKASGYTFTSFTMHWVKQRPGQGLEWIGYINPSSGYTEYNQKFKDKTTLTADKSSSTAYMQLDSLTSDDSAVYYCVRGSSRGFDYWGQGTLVTVSA
VL: DIQMIQSPASLSVSVGETVTITCRASENIYSNLAWFQQKQGKSPQLLVYAATNLADGVPSRFSGSGSGTQYSLKINSLQSEDFGIYYCQHFWGTPRTFGGGTKLEIK
notes: also called Antibody NKp46-4
binds: [2] | NKp46 mutant 19

B3: CD19-F2-NKp46-3 (bispecific antibody)
chain 1: DIQLTQSPASLAVSLGQRATISCKASQSVDYDGDSYLNWYQQIPGQPPKLLIYDASNLVSGIPPRFSGSGSGTDFTLNIHPVEKVDAATYHCQQSTEDPWTFGGGTKLEIKGGGGSGGGGSGGGGSQVQLQQSGAELVRPGSSVKISCKASGYAFSSYWMNWVKQRPGQGLEWIGQIWPGDGDTNYNGKFKGKATLTADESSSTAYMQLSSLASEDSAVYFCARRETTTVGRYYYAMDYWGQGTTVTVSSGGGSSAPELLGGPSVFLFPPKPKDTLMISRTPEVTCVVVDVSHEDPEVKFNWYVDGVEVHNAKTKPREEQYNSTYRVVSVLTVLHQDWLNGKEYKCKVSNKALPAPIEKTISKAKGQPREPQVYTKPPSREEMTKNQVSLSCLVKGFYPSDIAVEWESNGQPENNYKTTVPVLDSDGSFRLASYLTVDKSRWQQGNVFSCSVMHEALHNHYTQKSLSLSPGSTGSEVQLQQSGPELVKPGASVKISCKTSGYTFTEYTMHWVKQSHGKSLEWIGGISPNIGGTSYNQKFKGKATLTVDKSSSTAYMELRSLTSEDSAVYYCARRGGSFDYWGQGTTLTVSSASTKGPSVFPLAPSSKSTSGGTAALGCLVKDYFPEPVTVSWNSGALTSGVHTFPAVLQSSGLYSLSSVVTVPSSSLGTQTYICNVNHKPSNTKVDKRVEPKSCDKTH
chain 2: DIVMTQSPATLSVTPGDRVSLSCRASQSISDYLHWYQQKSHESPRLLIKYASQSISGIPSRFSGSGSGSDFTLSINSVEPEDVGVYYCQNGHSFPLTFGAGTKLELKRTVAAPSVFIFPPSDEQLKSGTASVVCLLNNFYPREAKVQWKVDNALQSGNSQESVTEQDSKDSTYSLSSTLTLSKADYEKHKVYACEVTHQGLSSPVTKSFNRGEC
notes: Heterodimer with monomeric Fc; also called bi-specific antibody NKp46-3 (F2)
binds: [3]
